Laboratory results published in publication PMC8844075, “Structural basis of neuropeptide Y signaling through Y1 receptor” (Nature Communications, 2022).
Each block holds one binder with its values, some of them ahead of it.

Columns and labels:
[1] = molecular target: Y1R-eYFP (wild-type Y1R) (human) (UniProt P25929)
[2] = molecular target: Y1R-eYFP (wild-type Y1R) (human) (UniProt P25929); remark: listed apart in the source

Y1R-eYFP (wild-type Y1R) (human), sequence (P25929 whole entry): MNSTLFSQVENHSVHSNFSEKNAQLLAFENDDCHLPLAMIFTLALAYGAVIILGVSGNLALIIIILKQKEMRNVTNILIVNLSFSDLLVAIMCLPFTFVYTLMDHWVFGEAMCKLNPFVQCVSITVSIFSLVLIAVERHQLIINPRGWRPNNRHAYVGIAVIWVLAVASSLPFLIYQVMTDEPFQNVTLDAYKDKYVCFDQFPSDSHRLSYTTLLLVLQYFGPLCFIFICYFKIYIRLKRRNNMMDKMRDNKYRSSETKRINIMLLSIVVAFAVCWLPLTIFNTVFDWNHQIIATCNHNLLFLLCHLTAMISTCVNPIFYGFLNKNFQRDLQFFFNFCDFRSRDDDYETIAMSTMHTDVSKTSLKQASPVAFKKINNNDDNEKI

signalling assay, increase of EC50 compared to NPY [1]: 64 fold
B1: pancreatic polypeptide (PP) (peptide)
peptide: APLEPVYPGDNATPEQMAQYAADLRRYINMLTRPRY

signalling assay (Ca2+), decrease in potency compared to full-length NPY [2]: 300 fold
B2: NPY(18–36) (peptide)
peptide: ARYYSALRHYINLITRQRY
